Measured values: the supplement of paper PMC9170038

System: MS2 coat protein
Experiment: apparent KD of MS2 coat protein; designed switch direction (-1 OFF switch, 1 ON switch): -1; higher = weaker reporter binding
In short: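 On Illumina chips, designed RNA switches with common flanks were made by stalled E. coli RNA polymerase. Titrations with SNAP-549-labelled MS2 coat protein, doubling from 0.7 or 1.5 nM to 3 µM, were done with no input, with 200 uM small-molecule ligand, or with an oligonucleotide input. Apparent KD is the median per design over clusters, from curve fits of normalised cluster fluorescence.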

[1] = Eterna round: R95, input ligand: FMN 200 uM
[2] = Eterna round: R95, input ligand: microRNA oligo, concentration not stated
[3] = Eterna round: R95, input ligand: none
[4] = input ligand: microRNA oligo, concentration not stated

| Sequence | apparent KD of MS2 coat protein (input ligand: FMN 200 uM) [nM] | apparent KD of MS2 coat protein (input ligand: none) [nM] | apparent KD of MS2 coat protein [1] [nM] | apparent KD of MS2 coat protein [2] [nM] | apparent KD of MS2 coat protein [3] [nM] | apparent KD of MS2 coat protein [4] [nM] |
| --- | --- | --- | --- | --- | --- | --- |
| UGCCCAGCAGGAUAUACAUGAGGAUCACCCAUGUCGAUUCAGUACGACUUAGUGCAACGUAGAAGGGCUGGGCC [Eternabot (L1) Solution 84] (Eterna round: R97, puzzle: Exclusion 3) | 405 | 39.5 | – | – | – | – |
| UGCCUAGCAGGAUAUGCCCGGGAUAACAUGAGGAUCACCCAUGUGACCGAUUGAUAUCCUGCAGAAGGGCUAGGGA [JL-EX5-4.10 ViennaUCT mod] (Eterna round: R97, puzzle: Exclusion 5) | 62.1 | 16.7 | – | – | – | – |
| UGCUAGUCAGGAUAUACGAACAUGUCAAAAGACGUGAAGGGACAUGAGGAUCACCCAUGUAGAAGGGACUAGCA [salish99_ex2_r3_005] (puzzle: Exclusion 2) | – | – | 158 | 27.1 | 23.9 | – |
| UGGCUACAUGAGGAUCACCCAUGUCAGGAUAUGCCGUUAAAUUAACAUCAACAUACGGGUAGAAGGGACAGCGU [1st #6] (Eterna round: R97, puzzle: Exclusion 1) | 43.5 | 41.7 | – | – | – | – |
| UGGCUACAUGAGGAUCACCCAUGUCAGGAUAUGCCGUUAAAUUGACAUCAACGUACGGGUAGAAGGGACUGCGU [1st #8] (Eterna round: R97, puzzle: Exclusion 1) | 43.2 | 45.6 | – | – | – | – |
| UGGUAACAUGAGGAUCACCCAUGUCAGGAUAUCAGUAAGAAGAGAUUAGAUUAGAAUAUGAGAAGGGACUAUAG [Excluse me! 2 - Jieux - Exclusion 1] (puzzle: Exclusion 1) | – | – | 30.1 | 40.3 | 37.8 | – |
| UGGUAACAUGAGGAUCACCCAUGUCAGGAUAUCAGUAAGAAUAGAUUAGAUUAGAAUAUGAGAAGGGACUAUAG [Excluse me! 3 - Jieux - Exclusion 1] (puzzle: Exclusion 1) | – | – | 38.5 | 38.9 | 47.8 | – |
| UGGUGGAAGCAGGAUAUGCUAGAAGUGUAGUUUGCAGAAGGGCUAACAUGAGGAUCACCCAUGUAAGAGGUGUU [JR_E6_Sub053] (puzzle: Exclusion 6) | – | – | 94.2 | 211 | 290 | – |
| UGUACUAACACGAAAGUGUUAGUACAAUAAGCUUGUGUUACAUGAGGAUCACCCAUGUCCUCAUAAGCUCGUCUUAU [Mat - Sensor v3 - Turn-off var 2 - D51] (puzzle: Sensor v3, turn-off variant 2) | – | – | 88.2 | 52.3 | 99.2 | – |
| UGUCAGAUGGUAGGAUAUCCAUAUCGAGUGUCCCUUUCCUAACAUGAGGAUCACCCAUGUCGGUGGGAGAAGGGCCGUAUGGUG [salish99_ExNG02_R04_034] (Eterna round: R96, puzzle: Exclusion NG 2) | 12.5 | 14.1 | – | – | – | 11.5 |
| UGUCAGAUGGUAGGAUAUUCAUAUCGAGUGACCCUUUCAUAACAUGAGGAUCACCCAUGUCGGUGGGAGAAGGGCCGUAUGGUG [salish99_ExNG02_R04_030] (Eterna round: R96, puzzle: Exclusion NG 2) | – | – | – | – | – | 22.7 |
| UGUGUCUCAGGAGGAUAUCUCUCGGUUGCCGUUAGAGAAGGCUUGAAACAUGAGGAUCACCCAUGUAAAUGGCCCGUCCUCCAA [Lalecetege] (Eterna round: R96, puzzle: Exclusion NG 1) | 12.2 | 14.1 | – | – | – | 11.3 |
| UGUGUGUUUGUGAGGAUAUUGUGUGUGAAAGCGCGCGAGAAGGCACAUGAGGAUCACCCAUGUAAGGGCGCGCG [-26, -24 kcal, A 23%, 6bis-6] (Eterna round: R97, puzzle: Brourd's mod of Exclusion 4) | 20.2 | 23 | – | – | – | – |
| UGUGUUUUUGUGAGGAUAUACUGUUUGUUUUGUUUGUAGAAGGUACAUGAGGAUCACCCAUGUUGUGUUUGGUU [JR_BME4_Sub032] (puzzle: Brourd's mod of Exclusion 4) | – | – | – | 30.9 | – | – |
| UGUUGUCGCGCAGGAUAUGAGGAUCACCCAUAUCAGGAUAUCGAAAGAGAAUUUCUGAGGAUCACCCAGAAGGGCGGGACAACU [pwkr exNG2 2xF5 2xFMN.34] (Eterna round: R96, puzzle: Exclusion NG 2) | 210 | 42.9 | – | – | – | 35.6 |
| UGUUGUCGCGUAGGAUAUGUAUGAGGAUCACCCAUUAAUAAAUUUUAACCACGAGGAUCACCCGUGUAGAAGGACGGGACAACA [pwkr exNG2 2xF5 1xFMN.16] (Eterna round: R96, puzzle: Exclusion NG 2) | 37.9 | 30.6 | – | – | – | 18.1 |
| UGUUGUUACGUAGGAUAUUGCCAACAGGCAGUAGGAUAUGCGAAAGCAGAAGGACCGCCAACAGGCGAGAAGGACGGGUUAACA [pwkr exNG2 2xF7 2xFMN.11] (Eterna round: R96, puzzle: Exclusion NG 2) | 286 | 389 | – | – | – | 31.5 |
| UGUUUACAUGAGGAUCACCCAUGUCAGGAUAUGAUAUAUAUAUGGAAACAUAUAUAUAUCAGAAGGGACUAGUG [Jieuxxlusion 1 - Jieux - Exclusion 1] (Eterna round: R97, puzzle: Exclusion 1) | 156 | 87.7 | – | – | – | – |
| UGUUUAUAUGAAGGAUAUACUUAACAUGAGGAUCACCCAUGUGGUGUUGUGAGUGAGUGAGUUUAGUAGAAGGUCAAUUAUUUU [JMF's solution 31] (Eterna round: R96, puzzle: Exclusion NG 2) | – | – | – | – | – | 303 |
| UUAAAGUCAGGAUAUACAUGAGGAUCACCCAUGUAAAAUUUUAAUUUAAUUUGAAGGUGUAGAAGGGACAAAUU [Ex3 #36] (Eterna round: R97, puzzle: Exclusion 3) | 25.6 | 26 | – | – | – | – |
| UUAAAGUCAGGAUAUACAUGAGGAUCACCCAUGUAAAAUUUUAAUUUAAUUUUAAGGUGUAGAAGGGACAAUUU [Ex3 #2] (Eterna round: R97, puzzle: Exclusion 3) | 29.8 | 31.1 | – | – | – | – |
| UUAAAUCAUGUAGGAUAUGCAUAGCGAAGCUAUGCAGAAGGACAUGAGGAUCACCCAUGUGCUUGCGUCCGCGUACGGAUGCUA [Mat - Exclusion NG 1 - Mod of JL - D67] (Eterna round: R96, puzzle: Exclusion NG 1) | 423 | 123 | – | – | – | 84.4 |
| UUAAAUCAUGUAGGAUAUGCGUGGCGAAGCUAUGCAGAAGGACAUGAGGAUCACCCAUGUGCUAGCGUCCGCGUACGGAUGCAA [JL ENG1 1.21] (Eterna round: R96, puzzle: Exclusion NG 1) | 131 | 62 | – | – | – | 57.1 |
| UUAAAUCAUGUAGGAUAUGCUUUGCAAAGCGAAGCAGAAGGACAUGAGGAUCACCCAUGUGCUAGCGUCCGAGAACGGAUGCAA [Mat - Exclusion NG 1 - Mod of JL - D65] (Eterna round: R96, puzzle: Exclusion NG 1) | 501 | 61.5 | – | – | – | 60.6 |
| UUAAUGAUUGUGAGGAUAUUUGAUAGAUAGAUAUUAGAGAAGGUACAUGAGGAUCACCCAUGUGUGAUUAGAGA [Brourd's EX4 #70] (Eterna round: R97, puzzle: Brourd's mod of Exclusion 4) | 164 | 75.4 | – | – | – | – |
| UUAAUGGCUGUGAGGAUAUCGGAUAGAUAGAUAUUCGAGAAGGCACAUGAGGAUCACCCAUGUGUGAUUAGAGA [Brourd's EX4 #63] (Eterna round: R97, puzzle: Brourd's mod of Exclusion 4) | 130 | 26 | – | – | – | – |
| UUAAUUAAUUAAGCGCAAGAUCACAUGAGGAUCACCCAUGUAUAGGAUAUCAGCUCGUUUAGAGCUGAGAAGGAUACAUAGCGC [ExNG3/2-A2] (Eterna round: R96, puzzle: Exclusion NG 3) | 738 | 172 | – | – | – | 155 |
| UUAAUUAAUUAAGGCUGAAGAUCACAUGAGGAUCACCCAUGUAAGGAUAUCAGCUCGUGUAGAGCUGAGAAGGUACAUGCAGCC [ExNG3/18-B3] (Eterna round: R96, puzzle: Exclusion NG 3) | 50.6 | 336 | – | – | – | 345 |
| UUAAUUAAUUAAUUAUAAGAUCAACAUGAGGAUCACCCAUGUGAGGAUAUCAGCUCGAUUAGAGCUGAGAAGGCACAAAUAAUU [ExNG3/16-B1] (Eterna round: R96, puzzle: Exclusion NG 3) | 147 | 44 | – | – | – | 53.6 |
